Test results as given in patent publication US20120077730A1.

Target: human C5a receptor (C5aR) (human) (UniProt P21730)
Test: cell-based or functional assay

Chain of UniProt P21730 (P21730 whole entry): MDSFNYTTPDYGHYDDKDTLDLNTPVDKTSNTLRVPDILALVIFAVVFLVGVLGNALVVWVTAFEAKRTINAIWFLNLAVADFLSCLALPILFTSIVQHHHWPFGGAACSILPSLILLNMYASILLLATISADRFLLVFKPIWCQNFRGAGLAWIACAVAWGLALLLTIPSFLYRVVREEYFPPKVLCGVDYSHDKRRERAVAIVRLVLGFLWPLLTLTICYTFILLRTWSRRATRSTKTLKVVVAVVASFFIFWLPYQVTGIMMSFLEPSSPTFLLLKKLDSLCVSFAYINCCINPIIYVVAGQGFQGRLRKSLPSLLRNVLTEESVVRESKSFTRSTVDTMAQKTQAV

| Substance | C5aR blocking activity relative to wt CHIPS1-121 (% of wt CHIPS1-121) | Chemotaxis IC50 |
| --- | --- | --- |
| CHIPS variant clone 376 (ADC-1004; CHIPS ΔN/C format) (from UniProt A6QIG7 31-113) | > 25 | 0.5 µg/mL |
| CHIPS ΔN/C (CHIPS31-113) (from UniProt A6QIG7 59-141) |  | 0.5 µg/mL |
| Wild-type (Wt) CHIPS1-121 (from UniProt A6QIG7 29-149) |  | 0.1 µg/mL |
